Data published in publication PMC10206189.

How the values were obtained:
VHH14-Fc (huarizo) [1] = assay: BLI; Octet RED384, 25 °C, 1× Kinetics buffer; VHH-Fc-loaded biosensors, mPlexin-B1 wildtype or H34Y P240Q at 400-6.25 nM, 300 s association, 600 s dissociation
VHH14-Fc (huarizo) [2] = assay: BLI; Octet RED384, 25 °C, 1× Kinetics buffer; purified VHH-Fc captured on Protein G biosensors, mouse Plexin-B1 in solution (VHH14-Fc: 10-3.75 nM, 1800 s association, 7200 s dissociation; VHH15-Fc: 160-10 nM, 600 s, 510 s); global 1:1 fit

VHH14-Fc (huarizo), sequence (heavy, as listed by the source): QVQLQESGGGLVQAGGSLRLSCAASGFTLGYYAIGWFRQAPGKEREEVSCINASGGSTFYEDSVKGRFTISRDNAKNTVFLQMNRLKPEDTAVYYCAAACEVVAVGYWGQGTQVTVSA

| Kd (VHH14-Fc (huarizo) [1]) [nM] | Kd (VHH14-Fc (huarizo) [2]) [nM] | Binder |
| --- | --- | --- |
| 3.13 | 0.237 | mouse Plexin-B1 (20–535)-6xHis (domain or fragment) LRSPLPAAFTANGTHLQHLARDPTTGTLYVGATNFLFQLSPGLQLEAVVSTGPVNDSRDCLPPVIPDECPQAQPTNNPNQLLLVSPEALVVCGSVHQGICELRSLGQIRQLLLRPERPGDTQYVAANDPAVSTVGLVAQGLVGEPLLFVGRGYTSRGVGGGIPPITTRALRPPDPQAAFSYEETAKLAVGRLSEYSHHFVSAFVRGASAYFLFLRRDLKAPSRAFRAYVSRVCLQDQHYYSYVELPLACQGGRYGLIQAAAVATSKEVARGDVLFAAFSSVAPPTVDWPLSASTGASGTSVLCAFPLDEVDQLANYTRDACYTREGRAENGTKVADIAYDVLSDCAQLPVDTPDAFPCGSDHTPSPMVSCVPLEATPILELPGVQLTAVAVTMEDGHTIAFLGDSQGQLHRVYLGPGRSAAPYSKQSIQPGSPVNRDLTFDGTFEHLYVATQTTLVKVPVAPCAQHLDCDSCLAHRDPYCGWCVLLGRCSRRSECSRDQGPEQWLWSFQPELGCLR |
| 255 |  | mPlexin-B1 (20–535) H34Y P240Q (domain or fragment) LRSPLPAAFTANGTYLQHLARDPTTGTLYVGATNFLFQLSPGLQLEAVVSTGPVNDSRDCLPPVIPDECPQAQPTNNPNQLLLVSPEALVVCGSVHQGICELRSLGQIRQLLLRPERPGDTQYVAANDPAVSTVGLVAQGLVGEPLLFVGRGYTSRGVGGGIPPITTRALRPPDPQAAFSYEETAKLAVGRLSEYSHHFVSAFVRGASAYFLFLRRDLKAQSRAFRAYVSRVCLQDQHYYSYVELPLACQGGRYGLIQAAAVATSKEVARGDVLFAAFSSVAPPTVDWPLSASTGASGTSVLCAFPLDEVDQLANYTRDACYTREGRAENGTKVADIAYDVLSDCAQLPVDTPDAFPCGSDHTPSPMVSCVPLEATPILELPGVQLTAVAVTMEDGHTIAFLGDSQGQLHRVYLGPGRSAAPYSKQSIQPGSPVNRDLTFDGTFEHLYVATQTTLVKVPVAPCAQHLDCDSCLAHRDPYCGWCVLLGRCSRRSECSRDQGPEQWLWSFQPELGCLR |
